Laboratory results published in the supplement of paper PMC7125110.
± gives the standard error. For some assays here: This sample holds only a part of the variants without activity.

B1: glmS ribozyme (parent)
chain: AUAAAAGCGCCAGAACUACAGAAAUGUAGUUGACGAGGAGGAGGUUUAUCGAAUUUUCGGCGGAUGCCUCCAAA

How the values were obtained:
Conditions in all cases: with glucosamine-6-phosphate
glucosamine-6-phosphate [1] = variants of: B1; test: kcat; higher = faster cleavage; RNA array
Summary of the method: (§1)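 Barcoded ribozyme variants were transcribed in situ on sequenced MiSeq chips by E. coli RNA polymerase. At 37 °C, a hybridised Cy3 probe tracked them while glucosamine-6-phosphate (40 μM to 10 mM) in HEPES/KCl/Mg(OAc)2 buffer flowed in and tiles were imaged over ~14 h. Per-tile medians of signals normalised to baseline and to non-cleaving reference variants were fit to one- or two-exponential decays, giving kobs. kcat and KM came from weighted Michaelis–Menten fits across concentrations.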

glucosamine-6-phosphate [2] = variants of: B1; test: self-cleavage kobs at 640 uM GlcN6P; higher = faster cleavage; RNA array
Summary of the method: as §1

glucosamine-6-phosphate [3] = variants of: B1; test: self-cleavage kobs at 2500 uM GlcN6P; higher = faster cleavage; RNA array
Summary of the method: as §1

glucosamine-6-phosphate [4] = variants of: B1; test: self-cleavage kobs at 10000 uM GlcN6P; higher = faster cleavage; RNA array
Summary of the method: as §1

glucosamine-6-phosphate [5] = variants of: B1; test: KM; higher = weaker cofactor use; RNA array
Summary of the method: as §1

glucosamine-6-phosphate [6] = variants of: B1; test: self-cleavage kobs at 40 uM GlcN6P; higher = faster cleavage; RNA array
Summary of the method: as §1

glucosamine-6-phosphate [7] = variants of: B1; test: self-cleavage kobs at 160 uM GlcN6P; higher = faster cleavage; RNA array
Summary of the method: as §1

Variant	kcat (glucosamine-6-phosphate [1])	self-cleavage kobs at 640 uM GlcN6P (glucosamine-6-phosphate [2])	self-cleavage kobs at 2500 uM GlcN6P (glucosamine-6-phosphate [3])	self-cleavage kobs at 10000 uM GlcN6P (glucosamine-6-phosphate [4])	KM (glucosamine-6-phosphate [5])	self-cleavage kobs at 40 uM GlcN6P (glucosamine-6-phosphate [6])	self-cleavage kobs at 160 uM GlcN6P (glucosamine-6-phosphate [7])
AUAAAAGCGCCAGGACUACAGAAAUGUAGUUGACGAGGAGGAGGUUUAUCGAAUUUUCGGCGGAUGGCUCUAAA [A14G C67G C71U]	5.11e-05 ± 1.2e-05 s⁻¹	9.52e-05 ± 3.5e-05 s⁻¹	5.17e-05 ± 1.4e-05 s⁻¹	4.43e-05 ± 1.3e-05 s⁻¹			
AUAAAAGUGCCAGAACUACAGAAAUGUAGUAGACGAGGAGGAGGUUUAUCGAAUUUUCGGCGGAUGCCUCCAAA [C8U U31A]	< 1e-05 s⁻¹	< 1e-05 s⁻¹					
AUAAAAGCGCCAGAACUACAGAAAUGUAGUUGACGAGGAGGAGGUUUAGCGAAUUUUCGGCGGAUGCCUCGAAA [U49G C71G]	7.69e-05 ± 4.8e-06 s⁻¹	4.8e-05 ± 8.8e-06 s⁻¹	6.83e-05 ± 1.3e-05 s⁻¹	7.21e-05 ± 9.4e-06 s⁻¹	427 ± 120 µM		
AUAAAAGCGCCAGAAUUACAGAAAUGUAAUUGACGAGGAGGAGGUUUAUCGAAUUUUCGGCGGAUACCUCCAAA [C16U G29A G66A]	0.00966 ± 0.0019 s⁻¹	0.00534 ± 0.001 s⁻¹	0.00654 ± 0.0021 s⁻¹	0.0139 ± 0.0063 s⁻¹	597 ± 190 µM	0.000592 ± 0.00015 s⁻¹	
AUAAAAGCGCUAGAACUACAGAAAUGUACUUGACGAGGAGGAGGUUUAUGGAAUUUUCGGCGGAUGCGUCCAAA [C11U G29C C50G C68G]	7.23e-05 ± 1.9e-05 s⁻¹	7.71e-05 ± 2.1e-05 s⁻¹	9.67e-05 ± 1.5e-05 s⁻¹	5.44e-05 ± 1e-05 s⁻¹			0.000134 ± 2.7e-05 s⁻¹
AUAAAAGCGCCAGCACUACAGAAAUGUAGUUGACGAGGAGGAGGUUUGUCGAAUUUUCGGCGGAUGCCUCCAAA [A14C A48G]	< 1e-05 s⁻¹	< 1e-05 s⁻¹			1040 ± 200 µM		
AUAAAAGCGCCAGGACUACAGAAAUGUAGUUGACGAGGAGGAGGUUUAUCGAAUUUUCGGCGGAGGCCUCCAAA [A14G U65G]	0.00446 ± 0.00028 s⁻¹	0.000633 ± 5.3e-05 s⁻¹	0.00182 ± 0.00016 s⁻¹	0.00321 ± 0.00033 s⁻¹	3780 ± 310 µM	4.37e-05 ± 6.7e-06 s⁻¹	0.000193 ± 2.1e-05 s⁻¹
AUAAAAGCGCCAGAACUACAGAAAUGUAGUUGACGAGGAGGAGGUUUAUCGAAUUCUUGGCGGAUGCCUCCAAA [U56C C58U]	6.39e-05 ± 2.4e-06 s⁻¹		2.41e-05 ± 1.1e-05 s⁻¹	4.48e-05 ± 8.5e-06 s⁻¹	4240 ± 440 µM		
AUAAAAGCGCCAGAACUACAGAAAUGUAGUUGACGAGGAGGAGGUAUAUCGAAUUGUCGGCGGAUGCCUCCAAA [U46A U56G]	0.00195 ± 0.00071 s⁻¹	0.000283 ± 6.8e-05 s⁻¹	0.000603 ± 0.00011 s⁻¹	0.00183 ± 0.00029 s⁻¹			9.87e-05 ± 1.5e-05 s⁻¹
AUAAAAGCGCCAGUACUACAGAAAUGUAGUUGACGAGGAGGAGGUUUAUCGAAUUUUCGGCGGAUGGCUCCAAA [A14U C67G]	0.000352 ± 8e-06 s⁻¹	9.71e-05 ± 6.9e-06 s⁻¹	0.000215 ± 1.7e-05 s⁻¹	0.000296 ± 2.9e-05 s⁻¹	1670 ± 68 µM		3.01e-05 ± 6.5e-06 s⁻¹
AUAAAAGCGCCAGAACUACAGAAAUGUAGUAGACGAGGAGGAGGUUUAUGGAAUUUUCGGCGGACGUCUCCAAA [U31A C50G U65C C67U]	0.000126 ± 2.3e-05 s⁻¹	0.000147 ± 4.9e-05 s⁻¹	0.000191 ± 4.1e-05 s⁻¹	0.000104 ± 1.9e-05 s⁻¹		8.02e-05 ± 1.6e-05 s⁻¹	0.000177 ± 5e-05 s⁻¹
AUAAAAGCGCCAGAACUACAGAAAUGUAGUUGACGAGGAGGAGGUUUAUUGAAUUUCCGGCGAAUGCCUCCAAA [C50U U57C G63A]	2.57e-05 ± 3.6e-06 s⁻¹						
AUAAAAGCGCCAGAACUACAGAAAUGUAGUUGACGAGGAGGAGGUUUAUCGAAGUUUCGCCGGAUGCGUCCAAA [U54G G60C C68G]	3.07e-05 ± 1.4e-05 s⁻¹						
AUAAAAGCGCCAGAACUACAGAAAUGUAGUUGACGAGGAGGGGGUUUAUCGAAUUUUCGGCGGAUUCCUCCAAA [A42G G66U]	0.00257 ± 0.00027 s⁻¹	0.000688 ± 8.4e-05 s⁻¹	0.00166 ± 0.00027 s⁻¹	0.0021 ± 0.00021 s⁻¹	1900 ± 310 µM	5.91e-05 ± 9e-06 s⁻¹	0.000171 ± 2.6e-05 s⁻¹
AUAAAAGCGCCAGAACUACAGAAAUGUAGUUGACGAGGAGGAGGUUUAUGGAAUUUUCGGCGGAUGCCUUCAAA [C50G C70U]	0.000103 ± 2.1e-05 s⁻¹		0.000149 ± 1.4e-05 s⁻¹	7.8e-05 ± 8.6e-06 s⁻¹		8.81e-05 ± 1e-05 s⁻¹	0.000129 ± 1.5e-05 s⁻¹
AUAAAAGCGCCAGAACUACAGAAAUGUAGUUGACGAGGAGGAGCUUUAUCGAAUUUUCGGCGGAUUCCUCCAAA [G44C G66U]	< 1e-05 s⁻¹	< 1e-05 s⁻¹		< 1e-05 s⁻¹		< 1e-05 s⁻¹	< 1e-05 s⁻¹
AUAAAAGCGCCAGAACUACAGAAAUGUAGCUGACGAGGAGGAGGUUUAUCGAAUUUUCGGCGUAUGCCUCCAAA [U30C G63U]	1.08e-05 ± 3e-06 s⁻¹			< 1e-05 s⁻¹			
AUAAAAGCGCCAGAACUACAGAAAUGUAGUUGACGAGGAGGGGAUUUAUCGAAUUUUCGGCGGAUGCCUCCAAA [A42G G44A]	0.00011 ± 2.6e-05 s⁻¹		7.65e-05 ± 1.8e-05 s⁻¹	8.49e-05 ± 1.1e-05 s⁻¹			
